Measurements as given in publication PMC7565984, “A Phosphorylation-Induced Switch in the Nuclear Localization Sequence of the Intrinsically Disordered NUPR1 Hampers Binding to Importin” (Biomolecules, 2020).

Assays:
[1] = target: T1, truncated importin α3 without the IBB domain (residues 64-521) (human, UniProt O00629 64-521); experiment: ITC; intact NUPR1 with ΔImpα3; conditions of this titration are not told (Figure S4); settings: both partners purified
T1 construct: human importin α3 (KPNA4) without the IBB domain, residues 64-521; also called ΔImpα3; ΔImportin
T1 sequence (looked up): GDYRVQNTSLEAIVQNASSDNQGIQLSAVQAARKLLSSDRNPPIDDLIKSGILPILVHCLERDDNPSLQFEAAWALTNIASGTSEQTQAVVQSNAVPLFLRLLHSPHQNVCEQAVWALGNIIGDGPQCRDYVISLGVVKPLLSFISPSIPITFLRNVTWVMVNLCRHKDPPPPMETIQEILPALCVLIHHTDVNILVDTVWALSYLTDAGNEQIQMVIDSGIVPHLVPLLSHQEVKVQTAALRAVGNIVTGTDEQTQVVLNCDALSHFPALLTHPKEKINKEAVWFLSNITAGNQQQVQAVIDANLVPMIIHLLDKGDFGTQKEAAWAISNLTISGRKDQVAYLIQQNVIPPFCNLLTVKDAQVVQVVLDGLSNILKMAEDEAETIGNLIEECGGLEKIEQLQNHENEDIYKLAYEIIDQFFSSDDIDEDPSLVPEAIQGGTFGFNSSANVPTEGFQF

[2] = target: T2, human importin α3 (Impα3) (Homo sapiens, UniProt O00629); settings: ITC, shown in Figure S4 for comparison; previously measured; read-out: Kd (dissociation constant) of intact NUPR1 for Impα3; cited from earlier work
T2 construct: although the IBB region maintains its independence within the whole Impα3 in terms of conformation; His-tag (N); made in house; host or cells: Escherichia coli BL21 (DE3)
T2 sequence (O00629 1-521): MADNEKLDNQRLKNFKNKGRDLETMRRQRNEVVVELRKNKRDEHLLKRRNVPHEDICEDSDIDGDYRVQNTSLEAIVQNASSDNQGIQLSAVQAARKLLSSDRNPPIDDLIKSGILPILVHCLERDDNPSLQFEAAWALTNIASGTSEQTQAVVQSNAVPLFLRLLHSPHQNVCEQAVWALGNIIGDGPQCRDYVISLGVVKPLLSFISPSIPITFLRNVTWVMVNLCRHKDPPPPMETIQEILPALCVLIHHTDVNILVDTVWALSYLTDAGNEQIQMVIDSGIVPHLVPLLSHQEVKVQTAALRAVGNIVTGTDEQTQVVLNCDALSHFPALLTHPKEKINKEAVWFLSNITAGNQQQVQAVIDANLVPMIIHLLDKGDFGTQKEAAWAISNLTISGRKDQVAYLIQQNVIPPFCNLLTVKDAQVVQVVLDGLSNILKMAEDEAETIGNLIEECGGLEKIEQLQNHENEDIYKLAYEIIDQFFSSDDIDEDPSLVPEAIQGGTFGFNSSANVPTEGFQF
Description: Furthermore, we tried to dissect the affinity of the NLS region of NUPR1 for Impα3 by using a “divide and conquer” approach with the peptides comprising the region. The interaction between full-length NUPR1 and its mutants with Impα3 and ΔImpα3 was the focus of this study, but instead, we emplo ... || In this work, we tried first to find out whether the theoretically predicted NLS region of NUPR1 was capable of binding in isolation to Impα3. Second, we tried to elucidate, for the first time, the molecular bases behind the binding of an NLS region of an IDP to an importin. […] These findings allow us to draw several conclusions. […] However, t ...

[3] = target: T3, ΔImpα3 (importin α3 without the IBB domain, residues 64-521) (Homo sapiens, UniProt O00629); experiment: ITC binding of NLS-NUPR1 peptides / NUPR1 to ΔImpα3; settings: ITC, 298 K, Tris 50 mM pH 8; importin 10–20 μM in cell, peptide 150–300 μM in syringe; 1:1 model; at least duplicates; relative error 30%; read-out: Kd (dissociation constant), ΔImpα3
T3 construct: The His-tagged ΔImpα3 (residues 64-521) was obtained from BL21 (DE3) cells as described; His-tag; made in house; host or cells: Escherichia coli BL21 (DE3)
T3 sequence (O00629 64-521): T1 sequence (looked up)
Procedure: The experimental set-up and data processing of ITC experiments has been described previously. Calorimetric titrations, performed in an Auto-iTC200 calorimeter (MicroCal, Malvern-Panalytical, Malvern, UK) consisted of series of 19 2-μL injections, with 150 s time spacing and a 750-rpm stirring speed. Impα3 or ΔImpα3 (at 10–20 μM) was loaded into the calorimetric cell and NLS-NUPR1 peptides in the syringe (150–300 μM); all solutions were prepared in buffer Tris 50 mM, pH 8. […] The binding affinity (association constant) and the binding enthalpy were estimated through a least-squares nonlinear regression data analysis, from which the Gibbs energy and the entropic contribution to the binding were calculated using well-known thermodynamic relationships. Since the binding stoichiometry is constrained by the model, the parameter n provides a fraction of the active or binding competent protein. Experiments for each peptide and importin species were performed, at least, in duplicates.

Kd [1]: 400 nM
Kd [3]: 440 nM
B1: intact NUPR1 (full-length, 82 residues) (natural protein, UniProt O60356 1-82, looked up)
chain: MATFPPATSAPQQPPGPEDEDSSLDESDLYSLAHSYLGGGGRKGRTKREAAANTNRPSPGGHERKLVTKLQNSERKKRGARR
notes: NUPR1, UniProtKB O60356, 82 residues long (8 kDa), intact protein; also called full-length NUPR1; nuclear protein 1
Kd [2]: 1400 nM
